± gives the uncertainty stated by the source.

The values below come from the supplement of paper PMC12042874.

This data set is described as follows: amyloid nucleation score (Sup35N fusion, yeast selection) (log enrichment); library NNK3; higher = more nucleation; inactive = no reads after selection. Put shortly:
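Three technical output replicates were used for random libraries. Psi-negative yeast expressing peptides of 20 random codons fused to Sup35N were induced with 100 μM copper sulfate for 24 hours and grown 7 days at 30°C on medium lacking adenine and uracil, and input and output plasmid inserts were Illumina-sequenced, excluding sequences with under 100 input reads. The nucleation score is the DiMSum log enrichment of output over input reads, centred on the mode score of non-aggregating sequences.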
As to SCFRFKTQLTIGLVEEISCA, the amyloid nucleation score result was “inactive”.
Consider EGRNFRCLFG, for which the amyloid nucleation score result is “inactive”.
The figure for RLINKYWSPNPMLRKFR is 1.09 ± 0.11.
The entry for IYPLMKTELGRTMILIDLLE is “inactive”; for YGCRRDIFKYSMTLLMDAID it is “inactive”.
For the substance FNFFQCFRQNASTIFSSGML, the amyloid nucleation score result was “inactive”.
MIKMAIRNLGYCSDYRTLCR: the amyloid nucleation score entry is “inactive”.
Turning to FRCTRGSIVWSFYFVRNLMI, the amyloid nucleation score entry was “inactive”.
Turning to IMGYGWDCTSDGLCVTCFYS, the amyloid nucleation score entry was “inactive”.
The entry for PSYEAASK is “inactive”; for YELGIHWTYCWL it is 2.39 ± 0.064.
For the substance LRGGKVMITRFVSCSI, the amyloid nucleation score result is “inactive”.
The substance KMILRFFSI had an amyloid nucleation score of 1.52 ± 0.063.
Take FLPCRFHNSLTDND: the amyloid nucleation score entry is “inactive”.
For LDSYVDFLTYFSQKGSRHHL, the amyloid nucleation score entry is “inactive”.
With NWDRGLTCHMYRFSNWRWGS, the amyloid nucleation score result was “inactive”.
Consider LGKSKFMAGQFLFCYSSVVL, for which the amyloid nucleation score was 1.58 ± 0.12.
Regarding DSSPVPKGYNRVRPLVNLAV, the amyloid nucleation score entry is “inactive”.
On to HMVSFAERTVSDVGTVNPGQ, for which the amyloid nucleation score result was “inactive”.
Consider RLGFDITKITWCGIYFAGWV, for which the amyloid nucleation score result was “inactive”.
Take NWLMSTTFRAYGV: the amyloid nucleation score entry is “inactive”.
In the case of VLSRGDMATFTTVMMRRDAH, the amyloid nucleation score result is “inactive”.
Regarding EVRPCNMLGLRNIGRGYREN, the amyloid nucleation score result is “inactive”.
In turn, FNGEGFSRQG showed an amyloid nucleation score of -0.457 ± 1.8.
RMCGSCYLCYCRERRGYTAF: the amyloid nucleation score result was “inactive”.
The entry for SCWKTHSAKNSNGS is “inactive”.
The entry for TTSEAIMLGCSISTYNQSGN is “inactive”.
For GESNVFILSAFNFNALVGFS, the amyloid nucleation score result is “inactive”.
For the substance IVYTSSLSAMCMRGRNGAVR, the amyloid nucleation score result is “inactive”.
Take RPYGSEVVIFMSVSRKPPPA: the amyloid nucleation score is 0.661 ± 0.14.
With LLRHDLYRVCTNRV, the amyloid nucleation score entry was “inactive”.
As to LLFVVQWWFNRFFE, the amyloid nucleation score entry is “inactive”.
On to SFAWVS, for which the amyloid nucleation score result is “inactive”.
On to TTMNVTFVPANLWCKSSHEA, for which the amyloid nucleation score entry was “inactive”.
FCAVALFFNTSVSFIDRSLP returned an amyloid nucleation score of 1.66 ± 0.083.
TIGGNWGHWVVVIFV: the amyloid nucleation score worked out at 0.064 ± 0.96.
The result for NSSEGDDY reads “inactive”; that for SCQKIALIWIRLTTDMRRRC, “inactive”.
The entry for ALSYLSVLRSMLSRVVLCYL is “inactive”.
As for VRNVKSNANCCFN, the amyloid nucleation score result is “inactive”.
Regarding VYIMYLSGCCRCHVPMNEGT, the amyloid nucleation score worked out at 2.05 ± 0.073.
Substance FCLVLGVWNLVPPGVKSMMQ showed an amyloid nucleation score of 0.889 ± 0.14.
The substance KVRQARGILASEGIGQETVG yielded an amyloid nucleation score of 1.33 ± 0.14.
Take LSTFMWNQAVWTPRIFWRCA: the amyloid nucleation score result is “inactive”.
On to MWEKFQWCNIINGINSVCVV, for which the amyloid nucleation score stood at 0.962 ± 0.16.
With TLASQFSFLVS, the amyloid nucleation score result is “inactive”.
Turning to STNGLLTSNS, the amyloid nucleation score entry is “inactive”.
In the case of QIGFCS, the amyloid nucleation score entry is “inactive”.
FCFLLKALTYHLS yielded an amyloid nucleation score of -0.067 ± 0.75.
For NLWVEGRKAQENMDPDARSR, the amyloid nucleation score result was “inactive”.
As to GDSCCDRLYLFFGVWCVRAV, the amyloid nucleation score result is “inactive”.
In the case of LGAWVGVFMLKQ, the amyloid nucleation score entry was “inactive”.
As to MKSQVHNIKWLPTCS, the amyloid nucleation score entry is “inactive”.
Regarding PGYGS, the amyloid nucleation score entry was “inactive”.
